# In the supplement of paper PMC7877785:
# ± gives the uncertainty stated by the source.
# Assay: self-splicing fitness, log relative to wild type (ln ratio); higher = more splicing; Tetrahymena group I intron in knt gene, E. coli kanamycin selection, DiMSum; sequences stand for … in CUCUCU…GGAGGGAAAAGUUAUCAGGCAUGCACCUGGUAGCUAGUCUUUAAACCAAUAGAUUGCAUCGGUUUAAAAGGCAAGACCGUCAAAUUGCGGGAAAGGGGUCAACAGCCGUUCAGUACCAAGUCUCAGGGGAAACUUUGAGAUGGCCUUGCAAAGGGUAUGGUAAUAAGCUGACGGACAUGGUCCUAACCACGCAGCCAAGUCCUAAGUCAACAGAUCUUCUGUUGAUAUGGAUGCAGUUCACAGACUAAAUGUCGGUCGGGGAAGAUGUAUUCUUCUCAUAAGAUAUAGUCGGACCUCUCCUUAAUGGGAGCUAGCGGAUGAAGUGAUGCAACACUGGAGCCGCUGGGAACUAAUUUGUAUGCGAAAGUAUAUUGAUUAGUUUUGGAGUACUCGUGGUCG
# In short: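 DiMSum derived fitness as the error-weighted combination of fold changes across replicates, kanamycin versus no kanamycin, normalised to wild type. E. coli BL21(DE3) held the library, which randomised all eight P1ex-region intron nucleotides within the knt kanamycin-resistance gene on pET-22b(+). Six replicate transformations grew overnight at 37°C or 30°C on LB agar with or without 25 μg/mL kanamycin, also containing 100 μg/mL carbenicillin, 50 μM IPTG and 0.2% rhamnose, and pooled colonies were amplicon-sequenced on an Illumina HiSeq 2500.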
Sequence,self-splicing fitness (ln) (30 °C),self-splicing fitness (ln) (37 °C)
AAUAAGCAAUAUUACGCCUG,-0.724 ± 0.13,0.286 ± 0.17
CCCGAGCAAUAUUACGAAAG,-3.74 ± 0.27,-1.7 ± 0.36
GAUUAGCAAUAUUACGUCUA,-1.14 ± 0.095,-0.229 ± 0.085
CUGAAGCAAUAUUACGAGGA,-3.46 ± 0.17,-1.95 ± 0.2
CUACAGCAAUAUUACGGUUA,-0.432 ± 0.092,0.11 ± 0.1
CUUAAGCAAUAUUACGAAGA,-2.98 ± 0.24,-1.45 ± 0.26
CCAAAGCAAUAUUACGAGAC,-3.26 ± 0.24,-2.31 ± 0.23
GGUAAGCAAUAUUACGGAAU,-3.35 ± 0.22,-1.87 ± 0.22
CAUUAGCAAUAUUACGCUAC,-3.99 ± 0.4,-2.13 ± 0.46
UGUAAGCAAUAUUACGAGCU,-0.434 ± 0.16,0.293 ± 0.16
CAGCAGCAAUAUUACGGCUG,-4.48 ± 0.25,-1.82 ± 0.19
CCACAGCAAUAUUACGCAUG,-1.64 ± 0.073,-0.648 ± 0.067
CAGAAGCAAUAUUACGCGGC,-0.924 ± 0.15,
AAGCAGCAAUAUUACGGGUA,-1.91 ± 0.15,-2.31 ± 0.16
CGCGAGCAAUAUUACGAACA,-3.27 ± 0.45,-1.19 ± 0.23
ACGGAGCAAUAUUACGCCAU,-2.63 ± 0.25,
CCAUAGCAAUAUUACGAGUG,-1.44 ± 0.092,-0.172 ± 0.097
CGACAGCAAUAUUACGCUGG,-3.13 ± 0.18,-2.1 ± 0.17
UUCAAGCAAUAUUACGAGCC,-2.64 ± 0.32,
GUGCAGCAAUAUUACGAUGU,-0.56 ± 0.067,-0.37 ± 0.073
CAUUAGCAAUAUUACGACUG,-0.158 ± 0.079,0.262 ± 0.092
AGAGAGCAAUAUUACGCUAG,-2.84 ± 0.28,-2.91 ± 0.38
GAGAAGCAAUAUUACGAGAC,-2.38 ± 0.3,-2.64 ± 0.28
AUAGAGCAAUAUUACGGAUA,-2.83 ± 0.31,-1.8 ± 0.39
UCCAAGCAAUAUUACGGGCA,-0.884 ± 0.06,0.244 ± 0.074
AUUCAGCAAUAUUACGGGCU,-2.2 ± 0.12,-1.38 ± 0.12

Sequence,self-splicing fitness (ln) (30 °C),self-splicing fitness (ln) (37 °C)
GCAGAGCAAUAUUACGCCUU,,-2.46 ± 0.33
CUCCAGCAAUAUUACGCUUU,-2.78 ± 0.19,-2.8 ± 0.26
GAGGAGCAAUAUUACGCUAC,-3.94 ± 0.37,-2.66 ± 0.33
GACCAGCAAUAUUACGCUGA,-1.04 ± 0.11,-0.811 ± 0.097
ACUUAGCAAUAUUACGAGUA,0.101 ± 0.18,-1.33 ± 0.21
AAACAGCAAUAUUACGAAUU,-2.36 ± 0.11,-1.2 ± 0.13
AUAUAGCAAUAUUACGACCU,-0.348 ± 0.14,0.267 ± 0.15
GCGUAGCAAUAUUACGUAGU,-2.27 ± 0.21,-0.677 ± 0.14
CAGUAGCAAUAUUACGGAGG,-1.61 ± 0.094,-0.514 ± 0.12
GUUGAGCAAUAUUACGCCGU,-2.98 ± 0.23,-0.768 ± 0.16
CUCUAGCAAUAUUACGGAGG,-2.14 ± 0.2,-1.32 ± 0.21
GAGUAGCAAUAUUACGCUUG,-0.859 ± 0.088,-0.313 ± 0.11
CGCGAGCAAUAUUACGAUAC,-3.81 ± 0.3,-2.56 ± 0.28
UGACAGCAAUAUUACGGCGA,-0.625 ± 0.085,-0.382 ± 0.092
CGACAGCAAUAUUACGUUUU,-3.62 ± 0.15,-1.54 ± 0.11
GCCGAGCAAUAUUACGGACA,-0.642 ± 0.083,0.233 ± 0.082
GCAUAGCAAUAUUACGAAGA,-2 ± 0.23,-0.497 ± 0.16
AUCAAGCAAUAUUACGACCA,-0.886 ± 0.13,0.0541 ± 0.14
AUGAAGCAAUAUUACGCGAA,-1.15 ± 0.087,-0.0789 ± 0.093
UCAGAGCAAUAUUACGAUUC,,-1.19 ± 0.41
GAUUAGCAAUAUUACGAGAC,-1.51 ± 0.3,-1.1 ± 0.22
GUCCAGCAAUAUUACGGCAC,-1.17 ± 0.064,-0.348 ± 0.092
CCUAAGCAAUAUUACGGGGU,-3.28 ± 0.17,-2.82 ± 0.17
ACUCAGCAAUAUUACGGCCA,-1.28 ± 0.13,-0.0774 ± 0.16
CCUGAGCAAUAUUACGUUAC,-3.52 ± 0.26,-3.09 ± 0.36
UUUCAGCAAUAUUACGGGUC,-3.24 ± 0.26,-2.14 ± 0.2

Sequence,self-splicing fitness (ln) (30 °C),self-splicing fitness (ln) (37 °C)
CCGAAGCAAUAUUACGUCCU,,-1.89 ± 0.28
ACGGAGCAAUAUUACGAGGG,-3.45 ± 0.25,-2.82 ± 0.32
ACGAAGCAAUAUUACGCGCA,-0.419 ± 0.068,0.542 ± 0.1
CUUGAGCAAUAUUACGAAGA,-2.53 ± 0.27,-3.17 ± 0.37
GCUUAGCAAUAUUACGCACA,-1.02 ± 0.14,0.3 ± 0.15
CUAAAGCAAUAUUACGAAUG,0.281 ± 0.067,0.497 ± 0.088
CAGUAGCAAUAUUACGUGGA,-2.9 ± 0.26,-3.63 ± 0.42
GUCGAGCAAUAUUACGGAUU,-2.03 ± 0.26,-0.691 ± 0.21
AUCAAGCAAUAUUACGCUAA,-2.95 ± 0.17,-1.1 ± 0.14
ACAGAGCAAUAUUACGAAGG,-3.82 ± 0.23,-3.32 ± 0.33
AUCCAGCAAUAUUACGGUGU,-1.07 ± 0.062,-0.834 ± 0.079
AACAAGCAAUAUUACGUACC,-1.03 ± 0.083,0.125 ± 0.13
CUUAAGCAAUAUUACGGAGA,-2.45 ± 0.24,-2.31 ± 0.29
CAGUAGCAAUAUUACGUGUU,-3.39 ± 0.22,-2.78 ± 0.19
CGCUAGCAAUAUUACGUUAU,-4.99 ± 0.32,-3.36 ± 0.26
CAUGAGCAAUAUUACGCGAU,-1.87 ± 0.18,-1.61 ± 0.32
GCAUAGCAAUAUUACGUGAA,-0.877 ± 0.067,-0.528 ± 0.07
CCGCAGCAAUAUUACGUCCA,-2.28 ± 0.27,0.175 ± 0.2
GGGAAGCAAUAUUACGGACA,-0.34 ± 0.087,-0.0303 ± 0.13
UUUGAGCAAUAUUACGCUUG,-3.52 ± 0.37,-1.63 ± 0.4
UGAUAGCAAUAUUACGUGAA,-3 ± 0.17,-1.7 ± 0.16
CCCGAGCAAUAUUACGACGU,-2.47 ± 0.15,-0.954 ± 0.13
AGGCAGCAAUAUUACGCCAA,-0.987 ± 0.25,-0.179 ± 0.25
GCGUAGCAAUAUUACGUUGA,-3.16 ± 0.33,-1.94 ± 0.21
AACAAGCAAUAUUACGGUAU,-1.61 ± 0.075,-1.16 ± 0.098
